Article PMC11558822, “Myc 9aaTAD activation domain binds to mediator of transcription with superior high affinity” (Molecular Medicine, 2024)
Values belong to the binder of their own block, whether it stands above or below them. No end group written: not given here. *: point of attachment. Biotin = O=C1N[C@H]2[C@H](CS[C@H]2CCCCC(=O)*)N1

Legend:
[1] = target: T1, KIX domain of CBP coactivator (region 586-672) (UniProt P45481 586-672); assay: BLI; biotinylated Sp1 or Sp1-Ac peptide immobilised, KIX in solution in the 3-16 uM range; steady-state analysis, 1:1 model; apparent KD; conditions: both partners purified
T1 construct: GST-His6x tag removed by TEV protease; also called KIX protein; source: expressed as GST-His6x-TEV-KIX from pGEX-2T, purified (His trap Ni column, TEV cleavage, second His trap, HiLoad S30); not shown: GST, N-terminal, cleaved; His6, N-terminal, cleaved
T1 sequence (P45481 other isoform, or with tags, fused parts or gaps): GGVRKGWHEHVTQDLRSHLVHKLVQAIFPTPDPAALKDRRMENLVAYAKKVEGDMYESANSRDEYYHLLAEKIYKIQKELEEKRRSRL

[2] = target: T1, KIX domain of CBP coactivator (region …); assay: BLI; biotinylated peptide immobilised on streptavidin SA biosensors (Octet RED96e); KIX domain in solution at 0.31, 0.63, 1.25, 2.5 and 5.0 uM; 30 C, 1000 rpm; 20 mM sodium phosphate pH 6.0, 50 mM NaCl; blank-subtracted, 1:1 model, steady-state analysis; apparent KD, average of pentaplicate; conditions: both partners purified

B2: c-Myc 9aaTAD peptide (Biotin-GSSS-TQLEMVTELLG) (peptide)
peptide: Biotin-GSSSTQLEMVTELLG
notes: linker between biotin and the c-Myc stretch; it may belong to the linker; also called c-Myc peptide; MYC peptide; source: synthetic peptide (Apeptide Shanghai Chutide Biotechnology), 95% purity
- Kd [2]: 2160 ± 1170 nM

B4: MLL 9aaTAD peptide (Biotin-GS-NILPSDIMDFVLKNT) (peptide)
peptide: Biotin-GSNILPSDIMDFVLKNT
notes: linker between biotin and the MLL stretch; MLL stretch with its 9aaTAD; Positive control of the BLI assay; also called MLL peptide; source: synthetic peptide (Apeptide Shanghai Chutide Biotechnology), 95% purity
- Kd [2]: 1170 ± 210 nM

Now from value to binder:

- Kd [1]: 9770 ± 1570 nM
B1: Sp1-Ac peptide, acidic form of Sp1 9aaTAD (Biotin-GSS-GDVSWDTLDLDDLD) (peptide)
peptide: Biotin-GSSGDVSWDTLDLDDLD
notes: linker between biotin and the Sp1 stretch; also called #SpD; acidic modification; source: synthetic peptide (Apeptide Shanghai Chutide Biotechnology), 95% purity

- Kd [2]: 880 ± 110 nM
B3: N-Myc 9aaTAD peptide (Biotin-GSSS-EPPSWVTEMLLEN) (peptide)
peptide: Biotin-GSSSEPPSWVTEMLLEN
notes: linker between biotin and the N-Myc stretch; human N-Myc stretch with its 9aaTAD; also called N-Myc peptide; NMY peptide; source: synthetic peptide (Apeptide Shanghai Chutide Biotechnology), 95% purity
